These results are taken from paper PMC2744139.

In this data set the target is Cdc13 full-length (FL) (Saccharomyces cerevisiae, UniProt P32797 1-924). Kind of data set: fluorescence anisotropy. In general terms: Polarisation of emitted light reports the rotation of a fluorescent probe.
Sequence of Cdc13 full-length (FL) (P32797 whole entry): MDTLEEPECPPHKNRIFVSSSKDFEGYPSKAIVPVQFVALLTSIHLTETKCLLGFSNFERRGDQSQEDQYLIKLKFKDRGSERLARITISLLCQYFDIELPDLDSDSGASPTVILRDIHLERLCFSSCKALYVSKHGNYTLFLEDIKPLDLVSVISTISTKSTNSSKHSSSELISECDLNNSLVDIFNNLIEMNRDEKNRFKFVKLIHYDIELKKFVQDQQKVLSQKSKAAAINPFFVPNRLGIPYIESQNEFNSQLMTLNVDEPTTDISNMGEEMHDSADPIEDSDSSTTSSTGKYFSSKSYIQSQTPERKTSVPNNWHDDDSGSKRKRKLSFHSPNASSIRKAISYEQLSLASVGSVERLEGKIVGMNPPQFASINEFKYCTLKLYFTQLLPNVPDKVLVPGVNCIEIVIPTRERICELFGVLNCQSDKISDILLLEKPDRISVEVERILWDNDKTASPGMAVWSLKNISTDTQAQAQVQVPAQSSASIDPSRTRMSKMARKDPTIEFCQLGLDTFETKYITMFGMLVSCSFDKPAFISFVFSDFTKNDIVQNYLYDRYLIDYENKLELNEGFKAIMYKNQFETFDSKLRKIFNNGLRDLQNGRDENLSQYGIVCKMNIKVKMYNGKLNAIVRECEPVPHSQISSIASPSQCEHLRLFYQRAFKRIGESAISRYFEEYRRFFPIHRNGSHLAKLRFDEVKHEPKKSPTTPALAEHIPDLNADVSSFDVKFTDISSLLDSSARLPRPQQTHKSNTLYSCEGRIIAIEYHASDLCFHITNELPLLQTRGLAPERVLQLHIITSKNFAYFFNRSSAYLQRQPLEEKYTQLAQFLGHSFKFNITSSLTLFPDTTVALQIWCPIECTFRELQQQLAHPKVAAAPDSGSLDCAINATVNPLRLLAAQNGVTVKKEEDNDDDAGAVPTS

B1: 7-base 3'-overhang telomeric DNA (mixed)
DNA: GTGGGTGTGTGTGTGGGGTGGTGTGTGTGG
?: CACCACCCCACACACACACCCAC
As for B1, the binding result is “no binding”.
